Test results: the supplement of paper PMC6757056
± gives the standard deviation of the averaged measurements.

B1: library; a variant is named by its letters at N, in order (parent)
chain: GCUGUCACCGGUGUAUUACCCUAGUGGUCGACCGGUCUGAUGAGUCUNNNNNNAGACGAAACAGC

How the values were obtained:
hypoxanthine [1] = variants of: B1; assay: normalized RNA/DNA level with ligand (relative to sTRSVctl = 100) (log10 (% of sTRSVctl)); ligand: hypoxanthine (xanthine aptamer); higher = less ribozyme self-cleavage, higher mRNA level; conditions: ligand concentration (+) RNA-Seq: 5 mM, HEK293T, reporter: mCherry (pCS4076), ligand present: yes
Outline: (§1)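 RNA level was computed as RNA reads over DNA reads divided by a spiked-in non-cleaving sequence or by the top sequences, then scaled and log-transformed. Scaling was ×100 with log10, the top group was 25 sequences, and the threshold was ≥100 DNA reads. The reads came from HEK293T cells transfected at 4 µg per 6-well well with ribozyme switch library plasmids (mCherry, or eGFP in some ligand experiments). Total RNA was extracted with EDTA 72 h after transfection, with any ligand added 1 h before it.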

hypoxanthine [2] = variants of: B1; assay: normalized RNA/DNA level without ligand (relative to sTRSVctl = 100) (log10 (% of sTRSVctl)); ligand: hypoxanthine (xanthine aptamer); higher = less ribozyme self-cleavage, higher mRNA level; conditions: HEK293T, reporter: mCherry (pCS4076), ligand present: no
Outline: as §1

| Variant | normalized RNA/DNA level with ligand (log10) (hypoxanthine [1]) | normalized RNA/DNA level without ligand (log10) (hypoxanthine [2]) |
| --- | --- | --- |
| GACGGC | 1.95 ± 0.07 | 1.63 ± 0.055 |
| UAGGGA | 1.861 ± 0.011 | 1.49 ± 0.035 |
| UAGGGC | 1.962 ± 0.01 | 1.88 ± 0.057 |
| GACCGC | 1.89 ± 0.029 | 1.7634 ± 0.0011 |
| GACCGA | 1.97 ± 0.032 | 1.8545 ± 0.00036 |
| UACCCA | 1.96 ± 0.057 | 1.89 ± 0.024 |
| UACCCU | 1.9818 ± 0.00074 | 1.916 ± 0.015 |
| UACCCG | 1.93 ± 0.073 | 1.692 ± 0.0093 |
| GAGGAU | 1.955 ± 0.019 | 1.7 ± 0.074 |
| AAGAGC | 1.9 ± 0.046 | 1.532 ± 0.009 |
| UACGCG | 1.893 ± 0.018 | 1.62 ± 0.069 |
| UACGCU | 1.95 ± 0.067 | 1.846 ± 0.012 |
| UACGCC | 2 ± 0.079 | 1.82 ± 0.036 |
| UACUGG | 1.884 ± 0.015 | 1.491 ± 0.0069 |
| UACUGC | 1.97 ± 0.072 | 1.846 ± 0.0079 |
| UACUGA | 1.95 ± 0.019 | 1.74 ± 0.02 |
| UAGCAC | 1.927 ± 0.0061 | 1.8 ± 0.018 |
| UAGCAU | 1.91 ± 0.026 | 1.772 ± 0.0045 |
| GAGAUU | 1.92 ± 0.041 | 1.82 ± 0.03 |
| CAGCCC | 2.03 ± 0.052 | 1.94 ± 0.023 |
| CAGCCA | 1.9708 ± 0.0019 | 1.78 ± 0.051 |
| CAGCCU | 2.039 ± 0.0086 | 1.91 ± 0.038 |
| CAGCCG | 1.947 ± 0.0075 | 1.88 ± 0.071 |
| AACCUU | 1.9 ± 0.054 | 1.895 ± 0.0019 |

| Variant | normalized RNA/DNA level with ligand (log10) (hypoxanthine [1]) | normalized RNA/DNA level without ligand (log10) (hypoxanthine [2]) |
| --- | --- | --- |
| AACCUA | 1.93 ± 0.028 | 1.84 ± 0.047 |
| AACCUC | 1.937 ± 0.018 | 1.96 ± 0.027 |
| GAGCUU | 1.92 ± 0.1 | 1.846 ± 0.0057 |
| GAGCUC | 1.99 ± 0.045 | 1.91 ± 0.034 |
| CACCCA | 1.958 ± 0.016 | 1.83 ± 0.019 |
| CACCCU | 1.96 ± 0.034 | 1.91 ± 0.096 |
| CACCCG | 1.94 ± 0.028 | 1.906 ± 0.01 |
| CACCCC | 1.96 ± 0.025 | 1.8889 ± 0.0018 |
| AACGUU | 1.91 ± 0.0075 | 1.829 ± 0.017 |
| CACACC | 1.99 ± 0.035 | 1.929 ± 0.0057 |
| CACACG | 1.96 ± 0.032 | 1.861 ± 0.017 |
| CACACA | 1.9 ± 0.036 | 1.78 ± 0.037 |
| UACUUG | 1.929 ± 0.0075 | 1.72 ± 0.064 |
| UACUUA | 1.95 ± 0.026 | 1.88 ± 0.033 |
| UACUUC | 1.98 ± 0.05 | 2 ± 0.058 |
| GACUAG | 1.837 ± 0.011 | 1.47 ± 0.045 |
| GACUAC | 1.94 ± 0.026 | 1.804 ± 0.0039 |
| UAGCGC | 1.95 ± 0.023 | 1.85 ± 0.057 |
| UAGCGU | 1.88 ± 0.055 | 1.46 ± 0.12 |
| AAGCCC | 1.97 ± 0.032 | 1.9 ± 0.041 |
| AAGCCU | 1.96 ± 0.02 | 1.85 ± 0.059 |
| CACCGG | 1.875 ± 0.0026 | 1.58 ± 0.13 |
| CACCGC | 2.015 ± 0.0091 | 1.91 ± 0.042 |
| CACCGU | 1.93 ± 0.064 | 1.892 ± 0.011 |

| Variant | normalized RNA/DNA level with ligand (log10) (hypoxanthine [1]) | normalized RNA/DNA level without ligand (log10) (hypoxanthine [2]) |
| --- | --- | --- |
| UACCUU | 1.927 ± 0.017 | 1.89 ± 0.054 |
| UACCUC | 1.99 ± 0.082 | 1.93 ± 0.067 |
| AACGCA | 1.9072 ± 0.0004 | 1.76 ± 0.03 |
| UAGAGC | 1.908 ± 0.017 | 1.706 ± 0.0082 |
| AAGGUC | 1.95 ± 0.08 | 1.89 ± 0.016 |
| AACCCU | 1.932 ± 0.0028 | 1.8887 ± 0.0015 |
| AACCCC | 1.97 ± 0.082 | 1.87 ± 0.043 |
| CACUUA | 1.87 ± 0.057 | 1.779 ± 0.0095 |
| CACUUG | 1.95 ± 0.1 | 1.88 ± 0.043 |
| CAGGAC | 1.88 ± 0.063 | 1.782 ± 0.01 |
| CAGGAG | 1.91 ± 0.022 | 1.473 ± 0.012 |
| GACACU | 1.912 ± 0.0036 | 1.905 ± 0.008 |
| GACACA | 1.934 ± 0.012 | 1.8467 ± 2.7e-05 |
| AACUCA | 1.975 ± 0.012 | 1.88 ± 0.023 |
| AACUCU | 1.9 ± 0.039 | 1.898 ± 0.015 |
| AACUCC | 2 ± 0.067 | 1.922 ± 0.011 |
| UACCAC | 1.88 ± 0.045 | 1.793 ± 0.016 |
| UACCAU | 1.914 ± 0.0031 | 1.832 ± 0.0068 |
| UAGCUC | 1.98 ± 0.034 | 2.03 ± 0.038 |
| UAGCUA | 1.96 ± 0.078 | 1.884 ± 0.0057 |
| UAGCUG | 1.944 ± 0.011 | 1.77 ± 0.02 |
| UAGCUU | 2.003 ± 0.015 | 1.84 ± 0.024 |
| UACUAU | 1.89 ± 0.027 | 1.83 ± 0.05 |
| UACUAC | 1.95 ± 0.056 | 1.926 ± 0.0063 |

| Variant | normalized RNA/DNA level with ligand (log10) (hypoxanthine [1]) | normalized RNA/DNA level without ligand (log10) (hypoxanthine [2]) |
| --- | --- | --- |
| CAGCAA | 1.885 ± 0.01 | 1.637 ± 0.014 |
| CAGCAG | 1.89 ± 0.019 | 1.68 ± 0.11 |
| CAGCAC | 1.94 ± 0.035 | 1.81 ± 0.034 |
| CAGAUC | 1.98 ± 0.089 | 1.91 ± 0.032 |
| CAGAUU | 1.96 ± 0.024 | 1.768 ± 0.015 |
| CAGAUG | 1.94 ± 0.03 | 1.808 ± 0.011 |
| CAGAUA | 1.88 ± 0.052 | 1.57 ± 0.043 |
| AACUUC | 1.96 ± 0.023 | 1.96 ± 0.023 |
| AACAGC | 1.94 ± 0.036 | 1.83 ± 0.05 |
| UACACA | 1.899 ± 0.0042 | 1.859 ± 0.012 |
| UACACG | 1.87 ± 0.035 | 1.63 ± 0.02 |
| UACACC | 1.961 ± 0.0059 | 1.9 ± 0.027 |
| AAGGAC | 1.905 ± 0.017 | 1.648 ± 0.012 |
| CACAUG | 1.91 ± 0.075 | 1.857 ± 0.017 |
| CACAUU | 1.909 ± 0.017 | 1.86 ± 0.031 |
| UACGUG | 1.86 ± 0.063 | 1.6 ± 0.009 |
| UACGUU | 1.956 ± 0.0074 | 1.86 ± 0.042 |
| UACGUA | 1.88 ± 0.09 | 1.829 ± 0.004 |
| UACGUC | 2.0228 ± 0.00028 | 1.94 ± 0.051 |
| GAGGCC | 2.03 ± 0.031 | 1.93 ± 0.023 |
| UAGGUA | 1.96 ± 0.033 | 1.84 ± 0.036 |
| UAGGUU | 1.961 ± 0.0077 | 1.85 ± 0.015 |
| UAGACC | 1.976 ± 0.016 | 1.92 ± 0.0073 |
| UAGACU | 1.925 ± 0.0021 | 1.83 ± 0.02 |

| Variant | normalized RNA/DNA level with ligand (log10) (hypoxanthine [1]) | normalized RNA/DNA level without ligand (log10) (hypoxanthine [2]) |
| --- | --- | --- |
| UAGACA | 1.9 ± 0.038 | 1.857 ± 0.0097 |
| UAGACG | 1.8696 ± 0.00011 | 1.642 ± 0.013 |
| GAGGUA | 1.862 ± 0.011 | 1.673 ± 0.0085 |
| GAGGUC | 2 ± 0.043 | 1.843 ± 0.016 |
| GAGGUU | 1.97 ± 0.035 | 1.86 ± 0.023 |
| GACCUA | 1.935 ± 0.01 | 1.85 ± 0.033 |
| GACCUC | 1.93 ± 0.031 | 1.909 ± 0.0094 |
| GACCUU | 1.95 ± 0.033 | 1.885 ± 0.015 |
| CAGGGC | 1.99 ± 0.056 | 1.84 ± 0.052 |
| CAGGGU | 1.884 ± 0.017 | 1.75 ± 0.021 |
| CAGGGA | 1.95 ± 0.04 | 1.781 ± 0.014 |
| AAGGCC | 1.96 ± 0.066 | 1.9104 ± 0.0016 |
| AAGGCA | 1.94 ± 0.035 | 1.64 ± 0.043 |
| AAGGCU | 1.9 ± 0.032 | 1.83 ± 0.05 |
| GAGGGG | 1.814 ± 0.015 | 1.34 ± 0.033 |
| GAGGGA | 1.9 ± 0.053 | 1.52 ± 0.022 |
| GAGGGU | 1.93 ± 0.032 | 1.689 ± 0.014 |
| CAGCGC | 2.01 ± 0.038 | 1.847 ± 0.007 |
| CAGCGA | 1.94 ± 0.027 | 1.79 ± 0.035 |
| UACAGU | 1.8101 ± 0.00016 | 1.52 ± 0.066 |
